Target: H6 hERG 666–872 Flag (human, UniProt Q12809 666-872)
Test: pull-down

H6 hERG 666–872 Flag, sequence (Q12809 666-872): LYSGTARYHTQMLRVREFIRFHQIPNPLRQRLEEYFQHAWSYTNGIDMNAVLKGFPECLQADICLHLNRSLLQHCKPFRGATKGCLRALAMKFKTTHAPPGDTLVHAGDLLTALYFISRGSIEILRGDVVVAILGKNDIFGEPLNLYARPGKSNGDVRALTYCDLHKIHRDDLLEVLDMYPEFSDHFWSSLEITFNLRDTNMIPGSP

B1: GST N1–135 (domain or fragment, human, UniProt Q12809 1-135, looked up)
chain: MPVRRGHVAPQNTFLDTIIRKFEGQSRKFIIANARVENCAVIYCNDGFCELCGYSRAEVMQRPCTCDFLHGPRTQRRAAAQIAQALLGAEERKVEIAFYRKDGSCFLCLVDVVPVKNEDGAVIMFILNFEVVMEK
binding result: binds

Source: PMC3047612 (The Journal of General Physiology, 2011)
